Data taken from US11278600B2, “Human alpha-galactosidase variants” (Codexis, Inc., priority 2014, dated 2022).

Experiments:
Format in all cases: biochemical
[1] = HTP-analysis of supernatants pretreated with base (MUGal hydrolysis); settings: activity of the variant/activity of Rd3BB (SEQ ID NO: 13); challenge at pH 9.7
Outline: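 GLA variants were secreted by transformed INVSc1 yeast grown 66-84 h at 30° C. Supernatants were exposed to neutral-to-basic buffers (pH 7.0-9.7) at 37° C for 1-18 h, then assayed with MUGal in acidic citrate/McIlvaine buffer, with fluorescence read after quenching.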

[2] = HTP-analysis of yeast culture supernatants, no challenge (MUGal hydrolysis); settings: activity of the variant/activity of Rd3BB (SEQ ID NO: 13)
Outline: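 GLA variants expressed in yeast INVSc1, secreted into SD-Ura broth over 66-84 h at 30° C; clarified supernatants tested without challenge. Supernatant mixed with McIlvaine buffer pH 4.8 and 2 mM MUGal (citrate/KCl, pH 4.6), 37° C for 30-180 min, carbonate-quenched, fluorescence Ex 355/Em 448 nm.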

[3] = HTP-analysis of supernatants pretreated with acid (MUGal hydrolysis); settings: activity of the variant/activity of Rd3BB (SEQ ID NO: 13); challenge at pH 3.7
Outline: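 MUGal hydrolysis was tracked by fluorescence (Ex 355 nm, Em 448 nm) after a 30-180 min reaction at 37° C. in pH 4.8 McIlvaine/citrate buffer, stopped with 1 M sodium carbonate. Beforehand, yeast (INVSc1) culture supernatants carrying GLA variants were held 1-3 h at 37° C. in acidic McIlvaine buffer, pH 3.3-4.3.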

| Molecule | Relative Activity of GLA Variants After Challenge at pH 9.7 [1] | Relative Activity of GLA Variants After No Challenge (NC) [2] | Relative Activity of GLA Variants After Challenge at pH 3.7 [3] |
| --- | --- | --- | --- |
| 556 (protein, Synthetic Polypeptide sequence of Variant No. 556 of mature Human GLA) LDNGLARTPTMGWLHWERFMCNLDCQEEPDSCISEKLFMEMAERMVSEGWKDAGYEYLCIDDCWMAPQRDSEGRLQADPQRFPHGIRQLANHVHSKGLKLGIYADVGNKTCAGFPGSFGYYDIDAQTFADWGVDLLKFDGCYCDSLENLADGYKHMSLALNRTGRSIVYSCEWPLYMWPFQKPNYTEIRQYCNHWRNFADIDDSWASIKSILDWTSRNQERIVDVAGPGGWNDPDMLVIGNFGLSWDQQVTQMALWAIMAAPLFMSNDLRHISPQAKALLQDKDVIAINQDPLGKQGYQLRKGDNFEVWERPLSGDAWAVAIINRQEIGGPRSYTIPVASLGKDVACNPACFITQLLPVKRQLGFYNWTSRLKSHINPTGTVLLQLENTMQMSLKDLL | + (+ = 1.5 to 5 relative activity over Rd3BB (SEQ ID NO: 13)) | − (− = <1.5 relative activity to Rd3BB (SEQ ID NO: 13)) | − (− = <1.5 relative activity to Rd3BB (SEQ ID NO: 13)) |
| 561 (protein, Synthetic Polypeptide sequence of Variant No. 561 of mature Human GLA) LDNGLARTPTMGWLHWERFMCNLDCQEEPDSCISEKLFMEMAERMVSEGWKDAGYEYLCIDDCWMAPQRDSEGRLQADPQRFPHGIRQLANHVHSKGLKLGIYADVGNKTCAGFPGSFGYYDIDAQTFADWGVDLLKFDGCYCDSLENLADGYKHMSLALNRTGRSIVYSCEWPLYMWPFQKPNYTEIRQYCNHWRNFADIDDSWASIKSILDWTSRNQERIVDVAGPGGWNDPDMLVIGNFGLSWDQQVTQMALWAIMAAPLFMSNDLRHISPQAKALLQDKDVIAINQDPLGKQGYQLRKGDNFEVWERPLSGDAWAVAIINRQEIGGPRSYTIPVASLGKGVACNPACFITQLLPVKRQLGFYNLTSRLKSHINPTGTVLLQLENTMQMSLKDLL | ++ (++ = >5 to 10 relative activity over Rd3BB (SEQ ID NO: 13)) | + (+ = 1.5 to 5 relative activity over Rd3BB (SEQ ID NO: 13)) | + (+ = 1.5 to 5 relative activity over Rd3BB (SEQ ID NO: 13)) |
| 563 (protein, Synthetic Polypeptide sequence of Variant No. 563 of mature Human GLA) LDNGLARTPTMGWLHWERFMCNLDCQEEPDSCISEKLFMEMAERMVSEGWKDAGYEYLCIDDCWMAPQRDSEGRLQADPQRFPHGIRQLANHVHSKGLKLGIYADVGNKTCAGFPGSFGYYDIDAQTFADWGVDLLKFDGCYCDSLENLADGYKHMSLALNRTGRSIVYSCEWPLYMWPFQKPNYTEIRQYCNHWRNFADIDDSWASIKSILDWTSRNQERIVDVAGPGGWNDPDMLVIGNFGLSWDQQVTQMALWAIMAAPLFMSNDLRHISPQAKALLQDKDVIAINQDPLGKQGYQLRKGDNFEVWERPLSGDAWAVAIINRQEIGGPRSYTIPVASLGKGVACNPACFITQLLPVKRQLGFYNRTSRLKSHINPTGTVLLQLENTMQMSLKDLL | ++ (++ = >5 to 10 relative activity over Rd3BB (SEQ ID NO: 13)) | + (+ = 1.5 to 5 relative activity over Rd3BB (SEQ ID NO: 13)) | + (+ = 1.5 to 5 relative activity over Rd3BB (SEQ ID NO: 13)) |
| 557 (protein, Synthetic Polypeptide sequence of Variant No. 557 of mature Human GLA) LDNGLARTPTMGWLHWERFMCNLDCQEEPDSCISEKLFMEMAERMVSEGWKDAGYEYLCIDDCWMAPQRDSEGRLQADPQRFPHGIRQLANHVHSKGLKLGIYADVGNKTCAGFPGSFGYYDIDAQTFADWGVDLLKFDGCYCDSLENLADGYKHMSLALNRTGRSIVYSCEWPLYMWPFQKPNYTEIRQYCNHWRNFADIDDSWASIKSILDWTSRNQERIVDVAGPGGWNDPDMLVIGNFGLSWDQQVTQMALWAIMAAPLFMSNDLRHISPQAKALLQDKDVIAINQDPLGKQGYQLRKGDNFEVWERPLSGDAWAVAIINRQEIGGPRSYTIPVASLGKSVACNPACFITQLLPVKRQLGFYNWTSRLKSHINPTGTVLLQLENTMQMSLKDLL | ++ (++ = >5 to 10 relative activity over Rd3BB (SEQ ID NO: 13)) | + (+ = 1.5 to 5 relative activity over Rd3BB (SEQ ID NO: 13)) | + (+ = 1.5 to 5 relative activity over Rd3BB (SEQ ID NO: 13)) |
| 558 (protein, Synthetic Polypeptide sequence of Variant No. 558 of mature Human GLA) LDNGLARTPTMGWLHWERFMCNLDCQEEPDSCISEKLFMEMAERMVSEGWKDAGYEYLCIDDCWMAPQRDSEGRLQADPQRFPHGIRQLANHVHSKGLKLGIYADVGNKTCAGFPGSFGYYDIDAQTFADWGVDLLKFDGCYCDSLENLADGYKHMSLALNRTGRSIVYSCEWPLYMWPFQKPNYTEIRQYCNHWRNFADIDDSWASIKSILDWTSRNQERIVDVAGPGGWNDPDMLVIGNFGLSWDQQVTQMALWAIMAAPLFMSNDLRHISPQAKALLQDKDVIAINQDPLGKQGYQLRKGDNFEVWERPLSGDAWAVAIINRQEIGGPRSYTIPVASLGKGVACNPACFLTQLLPVKRQLGFYNWTSRLKSHINPTGTVLLQLENTMQMSLKDLL | + (+ = 1.5 to 5 relative activity over Rd3BB (SEQ ID NO: 13)) | − (− = <1.5 relative activity to Rd3BB (SEQ ID NO: 13)) | − (− = <1.5 relative activity to Rd3BB (SEQ ID NO: 13)) |
| 562 (protein, Synthetic Polypeptide sequence of Variant No. 562 of mature Human GLA) LDNGLARTPTMGWLHWERFMCNLDCQEEPDSCISEKLFMEMAERMVSEGWKDAGYEYLCIDDCWMAPQRDSEGRLQADPQRFPHGIRQLANHVHSKGLKLGIYADVGNKTCAGFPGSFGYYDIDAQTFADWGVDLLKFDGCYCDSLENLADGYKHMSLALNRTGRSIVYSCEWPLYMWPFQKPNYTEIRQYCNHWRNFADIDDSWASIKSILDWTSRNQERIVDVAGPGGWNDPDMLVIGNFGLSWDQQVTQMALWAIMAAPLFMSNDLRHISPQAKALLQDKDVIAINQDPLGKQGYQLRKGDNFEVWERPLSGDAWAVAIINRQEIGGPRSYTIPVASLGKGVACNPACFITQLLPVKRQLGFYNNTSRLKSHINPTGTVLLQLENTMQMSLKDLL | ++ (++ = >5 to 10 relative activity over Rd3BB (SEQ ID NO: 13)) | + (+ = 1.5 to 5 relative activity over Rd3BB (SEQ ID NO: 13)) | + (+ = 1.5 to 5 relative activity over Rd3BB (SEQ ID NO: 13)) |
| 559 (protein, Synthetic Polypeptide sequence of Variant No. 559 of mature Human GLA) LDNGLARTPTMGWLHWERFMCNLDCQEEPDSCISEKLFMEMAERMVSEGWKDAGYEYLCIDDCWMAPQRDSEGRLQADPQRFPHGIRQLANHVHSKGLKLGIYADVGNKTCAGFPGSFGYYDIDAQTFADWGVDLLKFDGCYCDSLENLADGYKHMSLALNRTGRSIVYSCEWPLYMWPFQKPNYTEIRQYCNHWRNFADIDDSWASIKSILDWTSRNQERIVDVAGPGGWNDPDMLVIGNFGLSWDQQVTQMALWAIMAAPLFMSNDLRHISPQAKALLQDKDVIAINQDPLGKQGYQLRKGDNFEVWERPLSGDAWAVAIINRQEIGGPRSYTIPVASLGKGVACNPACFITQLLPVKRQLGFYNWTSRWKSHINPTGTVLLQLENTMQMSLKDLL | ++ (++ = >5 to 10 relative activity over Rd3BB (SEQ ID NO: 13)) | + (+ = 1.5 to 5 relative activity over Rd3BB (SEQ ID NO: 13)) | + (+ = 1.5 to 5 relative activity over Rd3BB (SEQ ID NO: 13)) |
| 560 (protein, Synthetic Polypeptide sequence of Variant No. 560 of mature Human GLA) LDNGLARTPTMGWLHWERFMCNLDCQEEPDSCISEKLFMEMAERMVSEGWKDAGYEYLCIDDCWMAPQRDSEGRLQADPQRFPHGIRQLANHVHSKGLKLGIYADVGNKTCAGFPGSFGYYDIDAQTFADWGVDLLKFDGCYCDSLENLADGYKHMSLALNRTGRSIVYSCEWPLYMWPFQKPNYTEIRQYCNHWRNFADIDDSWASIKSILDWTSRNQERIVDVAGPGGWNDPDMLVIGNFGLSWDQQVTQMALWAIMAAPLFMSNDLRHISPQAKALLQDKDVIAINQDPLGKQGYQLRKGDNFEVWERPLSGDAWAVAIINRQEIGGPRSYTIPVASLGKGVACNPACFITQLLPVKRQLGFYNATSRLKSHINPTGTVLLQLENTMQMSLKDLL | ++ (++ = >5 to 10 relative activity over Rd3BB (SEQ ID NO: 13)) | + (+ = 1.5 to 5 relative activity over Rd3BB (SEQ ID NO: 13)) | ++ (++ = >5 to 10 relative activity over Rd3BB (SEQ ID NO: 13)) |
